Values joined by “and” are separate entries in the source; they are usually repeats but may differ in a detail not shown here. Identical values can stand only once.
T1: human TIGIT on cells (primary T cells, transfected HEK293 cells, Jurkat reporter cells, NK cells) (human, UniProt Q495A1 22-244)
T1 sequence: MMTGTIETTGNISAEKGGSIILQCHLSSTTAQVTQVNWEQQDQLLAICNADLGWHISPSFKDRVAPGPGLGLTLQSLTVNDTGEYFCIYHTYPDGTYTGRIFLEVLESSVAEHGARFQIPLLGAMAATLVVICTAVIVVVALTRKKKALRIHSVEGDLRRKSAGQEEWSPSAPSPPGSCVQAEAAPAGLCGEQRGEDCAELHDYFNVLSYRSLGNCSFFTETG

T2: human TIGIT ECD expressed on the CHO-S cell surface (human, UniProt Q495A1 22-141)
T2 construct: sections 3.13 and 4.1 say only stably expressing human TIGIT; also called CHO-S-hTIGIT; CHO-S-huTIGIT
T2 sequence: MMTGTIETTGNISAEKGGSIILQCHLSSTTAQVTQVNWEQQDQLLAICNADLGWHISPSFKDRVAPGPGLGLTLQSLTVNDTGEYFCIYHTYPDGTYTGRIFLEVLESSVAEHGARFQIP

T3: His-tagged human TIGIT (human, UniProt Q495A1 22-141)
T3 construct: soluble analyte in SPR
T3 sequence: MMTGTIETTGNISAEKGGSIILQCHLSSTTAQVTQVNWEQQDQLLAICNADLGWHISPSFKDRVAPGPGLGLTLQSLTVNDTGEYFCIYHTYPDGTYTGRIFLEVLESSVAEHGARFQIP

T4: CD226 (UniProt Q15762 19-247, limits assumed)
T4 construct: also called related family member protein CD226
T4 sequence (looked up): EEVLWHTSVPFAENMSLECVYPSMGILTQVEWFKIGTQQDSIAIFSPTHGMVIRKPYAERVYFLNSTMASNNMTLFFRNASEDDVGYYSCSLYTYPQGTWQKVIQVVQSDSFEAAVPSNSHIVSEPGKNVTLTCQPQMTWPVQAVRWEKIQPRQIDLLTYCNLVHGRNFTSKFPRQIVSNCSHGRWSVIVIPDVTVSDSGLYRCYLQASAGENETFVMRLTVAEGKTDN


Columns and labels:
[1] = target: T1, human TIGIT on cells (primary T cells, …); test: cell-based or functional assay
[2] = target: T2, human TIGIT ECD expressed on the CHO-S …; test: flow cytometry on CHO-S cells expressing human TIGIT ECD
[3] = target: T5, cynomolgus monkey TIGIT ECD expressed on the CHO-S cell surface (cynomolgus monkey); test: flow cytometry on CHO-S cells expressing cyno TIGIT ECD
T5 construct: extracellular domain; also called CHO-S-cynoTIGIT

His-tagged human TIGIT [4] = target: T3, His-tagged human TIGIT; test: SPR, IgG captured on anti-human Fc, His-tagged human TIGIT injected
Protocol: (§1) Antibodies were then captured on the CM5 biosensor chip. Binding measurements were performed using the running HBS-EP+ buffer. Two-fold dilution series of his-tagged human TIGIT, with starting concentrations between 100 nM and 10 nM, were injected at a flow rate of 30 μl/min at 25° C. Dissociation rates (koff, s-1) were calculated using a simple 1:1 Langmuir binding model (Biacore Evaluation Software).

His-tagged human TIGIT [5] = target: T3, His-tagged human TIGIT; test: SPR Biacore, antibody captured on anti-human Fc, His-tagged TIGIT injected
Protocol: (§2) Binding affinities of anti-TIGIT hit candidate antibodies to human TIGIT and cynomolgus monkey TIGIT were measured by Surface Plasmon Resonance (SPR) using a GE Healthcare Biacore 4000 instrument and a GE Healthcare Biacore T200 instrument as follows. […] Antibodies were then captured on the CM5 biosensor chip to achieve approximately 200 response units (RU). Binding measurements were performed using the running HBS-EP+ buffer. 2-fold dilution series with starting concentration between 100 nM and 10 nM of His-tagged human and cynomolgus monkey (cyno) TIGIT proteins were injected at a flow rate of 30 μl/min at 25° C. Association rates (kon, M-1 s-1) and dissociation rates (koff, s-1) were calculated using a simple 1:1 Langmuir binding model (Biacore Evaluation Software). The equilibrium dissociation constant (KD, M) was calculated as the ratio of koff/kon.

[6] = target: T6, His-tagged cynomolgus monkey TIGIT (cynomolgus monkey, UniProt A0A7N9I9V4 89-209); test: as above
T6 construct: also called Cyno TIGIT; cynomolgus monkey TIGIT (Novoprotein cat. No. CP02)
T6 sequence (A0A7N9I9V4 entry or part of it): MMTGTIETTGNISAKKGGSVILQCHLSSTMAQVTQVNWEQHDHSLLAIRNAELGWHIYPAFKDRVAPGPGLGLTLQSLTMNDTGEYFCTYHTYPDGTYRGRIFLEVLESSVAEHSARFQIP
Protocol: as §2

[7] = target: T2, human TIGIT ECD expressed on the CHO-S …; test: cell-based or functional assay
CD226 = target: T4, CD226; test: ELISA EC50 assay
PD-L1 = target: T7, PD-L1 (UniProt Q9NZQ7 19-238, limits assumed); test: ELISA EC50 assay
T7 construct: also called unrelated protein PD-L1
T7 sequence (Q9NZQ7 19-238 limits assumed): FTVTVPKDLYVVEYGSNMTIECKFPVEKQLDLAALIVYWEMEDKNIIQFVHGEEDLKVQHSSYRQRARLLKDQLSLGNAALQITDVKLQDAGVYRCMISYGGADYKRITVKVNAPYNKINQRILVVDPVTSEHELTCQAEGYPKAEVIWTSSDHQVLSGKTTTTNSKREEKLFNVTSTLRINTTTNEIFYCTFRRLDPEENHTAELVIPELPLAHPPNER

His-tagged human TIGIT [8] = target: T3, His-tagged human TIGIT; test: SPR, IgG captured on anti-human Fc, His-tagged human TIGIT injected; remark: listed apart in the source
Protocol: as §1

[9] = target: T2, human TIGIT ECD expressed on the CHO-S …; test: flow cytometry on CHO-S cells expressing human TIGIT ECD; remark: listed apart in the source
[10] = target: T5, cynomolgus monkey TIGIT ECD expressed …; test: flow cytometry on CHO-S cells expressing cynomolgus monkey TIGIT ECD
[11] = target: T2, human TIGIT ECD expressed on the CHO-S …; test: flow cytometry blocking assay on CHO-S-hTIGIT cells, competitor muCD155-Fc; competitor muCD155-Fc; muIgG2c version
[12] = target: T2, human TIGIT ECD expressed on the CHO-S …; test: flow cytometry blocking assay on CHO-S-hTIGIT cells, competitor muCD112; competitor muCD112; muIgG2c version

Binder	EC50 [1] [µg/mL]	EC50 [2] [nM]	EC50 [3] [nM]	koff (His-tagged human TIGIT [4]) [s⁻¹]	Kd (His-tagged human TIGIT [5])	koff (His-tagged human TIGIT [5]) [s⁻¹]	kon (His-tagged human TIGIT [5]) [M⁻¹ s⁻¹]	Kd [6]	koff [6] [s⁻¹]	kon [6] [M⁻¹ s⁻¹]	ADCC EC50, nM (Donor 1005-4464) [7] [nM]	ADCC EC50, nM (Donor 1102-7215) [7] [nM]	ADCC EC50, nM (Donor 1106-0557) [7] [nM]	binding result (CD226)	binding result (PD-L1)	koff (His-tagged human TIGIT [8]) [s⁻¹]	EC50 (read off the curve) [9] [nM]	EC50 (read off the curve) [10] [nM]	IC50 [11] [µg/mL]	IC50 [12] [µg/mL]
3963H03 (antibody, human IgG1, kappa, V domains shown, fully human IgG1 kappa, B-cell cloning hit from OmniRat; also called 3963H03 VH; 3963H03 VK) VH: EIQLVQSGSELKKPGASVKVSCKASGYTFTSYPMNWVRQAPGQGLEWMGWINTNTGNPTYAQGFTGRFVFSLDTSVSTAYLQISSLKAEDTAVYYCARVGGYSVDEYAFDVWGQGTMVTVSS VL: AIRLTQSPSFLSASVGDRVTITCRASQGISSYLAWYQQKPGKAPKLLIYAASTLQSGVPSRFSGSGSGTEFTLTISSLQPEDFATYYCQQLNSYPTFGGGTKVEIKR	6.3	4.7	3.6	0.00063	3.37 nM and 3.4 nM	0.000407	121000	1.45 nM and 1.5 nM	0.000213	147000	0.028	0.069	0.08	no binding	no binding	0.00063	–	–	–	–
3964A06 (antibody, human IgG1, V domains shown) VH: EVQLVQSGSELKKPGASVKVSCKASGYTFTAYPMNWVRQAPGQGLEWMGWINTNTGNPTYAQGFTGRFVFSLDTSVSTAYLQISSLKAEDTAVYYCARVGGYSVYDYAFDIWGQGTMVTVSS VL: DIQLTQSPSFLSASVGDRVTITCRASQGISSYLAWYQQKPGKAPKLLIYAASTLQSGVPSRFSGSGSGTEFTLTISSLQPEDFATYYCQQLNSYPTFGGGTKVEIK	–	–	–	–	2.62 nM and 2.6 nM	0.000233	89100	1.11 nM and 1.1 nM	0.000122	109000	–	–	–	no binding	no binding	–	~9	~8	–	–
3963H03-12-muIgG2c (antibody, V domains shown, also called version of 3963H03-12 with a murine immunoglobulin) VH: QVQLVQSGSELKKPGASVKVSCKASGYTFTSYPMNWVRQAPGQGLEWMGWINTNTGNPTYAQGFTGRFVFSLDTSVSTAYLQISSLKAEDTAVYYCARVGGYSVDEYAFDVWGQGTLVTVSS VL: DIQLTQSPSFLSASVGDRVTITCRASQGISSYLAWYQQKPGKAPKLLIYAASTLQSGVPSRFSGSGSGTEFTLTISSLQPEDFATYYCQQLSSYPTFGGGTKVEIK	–	–	–	–	–	–	–	–	–	–	–	–	–	–	–	–	–	–	0.291	1.19
3966C11 (antibody, human IgG1, V domains shown, constant regions correspond to those of H03-12 (human IgG1, kappa)) VH: EIQLVQSGSELKKPGASVKVSCKASGYTFTSYPMNWVRQAPGQGLEWMGWINTNTGNPTNAQGFTGRFVFSLDTSVSTAYLQISSLKAEDTAVYYCARVGGYGGYDYAFDIWGQGTMVTVSS VL: DIQLTQSPSFLSASVGDRVTITCRASQGISSYLAWYQQKPGKAPKLLIYAASTLQSGVPSRFSGSGSGTEFTLTISSLQPEDFATYYCQQLNSYPTFGGGTKLEIK	–	–	–	–	2.53 nM and 2.5 nM	0.000274	108000	1.41 nM and 1.4 nM	0.000167	118000	–	–	–	no binding	no binding	–	~9	~7	–	–
3965D08 (antibody, human IgG1, V domains shown, constant regions correspond to those of H03-12 (human IgG1, kappa)) VH: EVQLVQSGSELKKPGASVKVSCKASGYTFTSYPMNWVRQAPGQGLEWMGWINTNTGNPTYAQGFTGRFVFSLDTSVSTAYLQISSLKAEDTAVYYCARTGYSGSYYWFDPWGQGTLVTVSS VL: DIRLTQSPSFLSASVGDRVTITCRASQGISSYLAWYQQKPGKAPKFLIYAASTLQSGVPSRFSGSGSGTEFTLTISSLQPEDFATYYCQQLNSYLTFGQGTRLEIK	–	–	–	–	10.3 nM	0.00497	482000	8.66 nM and 8.7 nM	0.00565	653000	–	–	–	no binding	no binding	–	~5	~3	–	–
7728B03 (antibody, V domains shown, constant regions correspond to those of H03-12) VH: QMQLVQSGSELKKPGASVKVSCKASGYTFTSYPMNWVRQAPGQGLEWMGWINTNTGNPTYAQGFTGRFVFSLDTSVSTAYLQISSLKAEDTAVYYCARTGGYSVDEYSFDIWGQGTTVTVSS VL: DIQLTQSPSFLSASVGDRVTITCRASQGISSYLAWYQQKPGKAPKLLIYAASTLQSGVPSRFSGSGSGTEFTLTISSLQPEDFATYYCHQTIFRPTFGGGTKVEIK	–	–	–	–	0.0661 nM and 0.07 nM	2.15e-05	325000	0.0519 nM and 0.05 nM	1.57e-05	303000	–	–	–	–	–	–	–	–	–	–
7729G05 (antibody, V domains shown, constant regions correspond to those of H03-12) VH: QVQLVQSGSELKKPGASVKVSCKASGYTFTSYPMNWVRQAPGQGLEWMGWINTNTGNPTYAQGFTGRFVFSLDTSVSTAYLQISSLKAEDTAVYYCARVGGFTVPEYAFDIWGQGTTVTVSS VL: DIRLTQSPSFLSASVGDRVTITCRASQGISSYLAWYQQKPGKAPKLLIYAASTLQSGVPSRFSGSGSGTEFTLTISSLQPEDFATYYCGQVMRYPAFGGGTKVEIK	–	–	–	–	0.0173 nM and < 0.05 nM	1.33e-05	767000	0.0211 nM and < 0.05 nM	1.23e-05	581000	–	–	–	–	–	–	–	–	–	–
